“And” between values parts separate entries of the source, which are not always exact repeats. Equal values may be shown once.
Columns and labels:
[1] = molecular target: T1, huntingtin exon 1-thioredoxin (TRX) fusion protein with 16 glutamines (Homo sapiens, UniProt P42858, strain); test: small angle X-ray scattering
[2] = molecular target: T2, huntingtin exon 1-thioredoxin (TRX) fusion protein with 39 glutamines (Homo sapiens, UniProt P42858, strain); test: SEC
[3] = molecular target: T2, huntingtin exon 1-thioredoxin (TRX) …; test: SEC-MALS
[4] = molecular target: T1, huntingtin exon 1-thioredoxin (TRX) …; test: SEC-MALS

T2 sequence (P42858 whole entry, looked up, change not shown, the tested form may be a part): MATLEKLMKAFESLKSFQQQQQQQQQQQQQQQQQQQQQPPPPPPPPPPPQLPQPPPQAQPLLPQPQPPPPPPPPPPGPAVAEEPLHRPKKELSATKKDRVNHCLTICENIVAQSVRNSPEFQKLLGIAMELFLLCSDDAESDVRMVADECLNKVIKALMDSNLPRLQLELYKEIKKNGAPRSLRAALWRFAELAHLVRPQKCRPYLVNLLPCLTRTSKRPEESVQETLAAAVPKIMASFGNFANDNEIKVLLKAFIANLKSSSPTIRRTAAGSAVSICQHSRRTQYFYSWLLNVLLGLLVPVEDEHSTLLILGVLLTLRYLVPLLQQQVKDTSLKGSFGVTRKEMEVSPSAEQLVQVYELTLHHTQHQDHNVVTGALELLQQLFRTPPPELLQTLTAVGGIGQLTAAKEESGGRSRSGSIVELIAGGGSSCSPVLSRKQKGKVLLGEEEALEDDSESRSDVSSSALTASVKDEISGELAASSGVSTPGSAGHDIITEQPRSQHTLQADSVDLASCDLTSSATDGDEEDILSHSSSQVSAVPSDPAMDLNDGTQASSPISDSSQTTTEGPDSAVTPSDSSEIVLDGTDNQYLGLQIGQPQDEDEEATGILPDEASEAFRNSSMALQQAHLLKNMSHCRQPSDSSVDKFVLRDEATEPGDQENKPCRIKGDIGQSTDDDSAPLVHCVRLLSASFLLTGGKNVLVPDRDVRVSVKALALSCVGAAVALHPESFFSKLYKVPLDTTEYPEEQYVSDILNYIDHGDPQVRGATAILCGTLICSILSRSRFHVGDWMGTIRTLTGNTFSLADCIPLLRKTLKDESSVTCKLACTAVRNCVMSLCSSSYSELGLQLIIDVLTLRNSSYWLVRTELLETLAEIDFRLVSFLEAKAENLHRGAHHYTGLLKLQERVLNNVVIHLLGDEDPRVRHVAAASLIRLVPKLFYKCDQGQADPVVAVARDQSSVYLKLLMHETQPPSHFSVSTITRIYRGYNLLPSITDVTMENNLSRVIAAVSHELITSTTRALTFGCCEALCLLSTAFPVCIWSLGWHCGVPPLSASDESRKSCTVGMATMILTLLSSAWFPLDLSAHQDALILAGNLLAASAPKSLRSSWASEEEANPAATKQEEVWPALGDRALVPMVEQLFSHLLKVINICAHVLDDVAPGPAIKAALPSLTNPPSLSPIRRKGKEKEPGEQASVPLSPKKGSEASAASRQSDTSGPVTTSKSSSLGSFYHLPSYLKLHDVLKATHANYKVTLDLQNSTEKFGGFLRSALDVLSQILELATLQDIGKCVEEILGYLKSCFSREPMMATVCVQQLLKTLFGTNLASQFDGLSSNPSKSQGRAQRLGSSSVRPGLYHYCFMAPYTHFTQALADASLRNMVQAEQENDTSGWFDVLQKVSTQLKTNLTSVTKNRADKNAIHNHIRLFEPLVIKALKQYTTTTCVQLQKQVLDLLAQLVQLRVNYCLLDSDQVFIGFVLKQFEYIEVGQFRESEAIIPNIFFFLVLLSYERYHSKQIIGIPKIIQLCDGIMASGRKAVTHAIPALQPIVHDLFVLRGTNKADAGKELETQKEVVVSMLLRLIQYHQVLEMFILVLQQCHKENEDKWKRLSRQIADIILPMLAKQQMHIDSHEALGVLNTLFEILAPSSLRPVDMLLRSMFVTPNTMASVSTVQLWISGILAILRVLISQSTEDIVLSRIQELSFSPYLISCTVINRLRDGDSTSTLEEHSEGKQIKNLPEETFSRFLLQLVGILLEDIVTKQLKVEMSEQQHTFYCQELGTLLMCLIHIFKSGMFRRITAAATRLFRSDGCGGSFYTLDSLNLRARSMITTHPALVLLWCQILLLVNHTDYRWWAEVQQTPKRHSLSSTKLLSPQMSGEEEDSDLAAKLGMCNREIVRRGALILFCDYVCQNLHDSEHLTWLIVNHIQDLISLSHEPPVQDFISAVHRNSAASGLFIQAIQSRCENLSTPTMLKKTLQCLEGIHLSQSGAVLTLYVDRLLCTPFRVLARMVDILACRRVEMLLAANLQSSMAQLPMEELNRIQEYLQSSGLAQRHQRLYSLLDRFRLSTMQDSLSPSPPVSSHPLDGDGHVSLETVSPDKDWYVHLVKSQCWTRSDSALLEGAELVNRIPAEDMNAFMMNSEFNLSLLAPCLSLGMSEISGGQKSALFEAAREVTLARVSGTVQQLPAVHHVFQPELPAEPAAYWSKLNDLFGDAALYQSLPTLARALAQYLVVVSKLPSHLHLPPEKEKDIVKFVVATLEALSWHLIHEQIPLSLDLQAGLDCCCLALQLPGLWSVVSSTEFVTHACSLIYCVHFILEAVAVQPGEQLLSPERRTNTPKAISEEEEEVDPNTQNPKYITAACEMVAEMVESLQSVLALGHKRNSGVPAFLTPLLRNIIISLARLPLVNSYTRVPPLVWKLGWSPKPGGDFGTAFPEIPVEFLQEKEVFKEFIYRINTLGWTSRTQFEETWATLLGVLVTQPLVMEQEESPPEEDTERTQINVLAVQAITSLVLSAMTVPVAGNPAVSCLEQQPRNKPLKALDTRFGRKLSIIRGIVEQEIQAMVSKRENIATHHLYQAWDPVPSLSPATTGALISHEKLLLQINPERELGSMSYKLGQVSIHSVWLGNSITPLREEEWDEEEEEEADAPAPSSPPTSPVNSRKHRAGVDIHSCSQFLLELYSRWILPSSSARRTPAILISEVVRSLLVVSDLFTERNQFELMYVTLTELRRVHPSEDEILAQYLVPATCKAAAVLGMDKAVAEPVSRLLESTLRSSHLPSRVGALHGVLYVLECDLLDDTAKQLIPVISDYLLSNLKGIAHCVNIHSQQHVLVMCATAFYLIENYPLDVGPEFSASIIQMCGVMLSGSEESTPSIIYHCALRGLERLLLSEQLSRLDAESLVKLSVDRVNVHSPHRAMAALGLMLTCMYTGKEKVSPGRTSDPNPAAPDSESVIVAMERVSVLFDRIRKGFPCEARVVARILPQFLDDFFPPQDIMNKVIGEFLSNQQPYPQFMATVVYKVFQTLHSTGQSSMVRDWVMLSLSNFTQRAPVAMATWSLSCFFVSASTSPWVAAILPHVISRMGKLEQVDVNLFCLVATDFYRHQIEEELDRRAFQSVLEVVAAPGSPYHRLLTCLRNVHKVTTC
T1 sequence (P42858 whole entry, looked up, change not shown, the tested form may be a part): as above

B1: 3B5H10 Fab (Fab, V domains shown)
VH: QIQLVQSGPELKKPGETVKISCKASGYTFTTYGMSWVKQAPGKGFEWMGWINTYSGVPTYVDDFKGRFAFSLETSASTAYLQINNLKNEDTAVYFCARGGDNYLWFAYWGQGTLVTVSA
VL: QLVLTQSSSASFSLGASAKLTCTLNSQHSTYTIEWYQQQPLKPPKYVMELKKDGSHSTGDGIPDRFSGSSSGADRYLSISNIQPEDEAIYICGVGDTIKEQFVYVFGGGTKVTVL
stoichiometry N [1]: 1 Fab:HD-16Q
N at 5 μM 3B5H10 Fab in the equilibration buffer (ratio with flat baseline) [2]: ~2.6 Fab:HD-39Q
stoichiometry N [2]: 3 Fab:HD-39Q
stoichiometry N [3]: > 1 3B5H10 Fab:HD-39Q and < 2 3B5H10 Fab:HD-39Q
stoichiometry N [4]: 1 3B5H10 Fab:HD-16Q
